Assays:
[1] = target: Bordetella pertussis toxin (PT) holotoxin (Bordetella pertussis) (UniProt P04977); assay: FACS; conditions: natural protein
[2] = target: Bordetella pertussis toxin (PT) holotoxin (Bordetella pertussis) (UniProt P04977); assay: FACS; conditions: natural protein; remark: listed apart in the source

Chain of α1-antitrypsin (Prolastin, plasma-derived) (P01009 25-418): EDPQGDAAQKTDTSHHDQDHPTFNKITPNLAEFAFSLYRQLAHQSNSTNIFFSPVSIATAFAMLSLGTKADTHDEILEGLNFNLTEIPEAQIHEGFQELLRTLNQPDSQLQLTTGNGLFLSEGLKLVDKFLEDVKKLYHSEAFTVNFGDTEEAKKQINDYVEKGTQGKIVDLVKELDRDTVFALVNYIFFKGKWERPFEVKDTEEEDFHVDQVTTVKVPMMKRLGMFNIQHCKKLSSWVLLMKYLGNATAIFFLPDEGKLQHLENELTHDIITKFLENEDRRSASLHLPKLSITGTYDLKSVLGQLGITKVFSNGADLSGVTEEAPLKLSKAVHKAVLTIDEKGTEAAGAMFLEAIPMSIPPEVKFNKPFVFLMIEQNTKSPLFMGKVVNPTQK

α1-antitrypsin (Prolastin, plasma-derived) (from UniProt P01009 25-418)
IC50 [1]: 1.73 µM
IC50 [2]: 0.796 µM
